Source: the RNAGym collection of RNA variant scans (doi:10.1093/molbev/msab373)

B1: Azoarcus group I ribozyme (parent)
chain: GUGCCUUGCGCCGGGAAACCACGCAAGGGAUGGUGUCAAAUUCGGCGAAACCUAAGCGCCCGCCCGGGCGUAUGGCAACGCCGAGCCAAGCUUCGGCGCCUGCGCCGAUGAAGGUGUAGAGACUAGACGGCACCCACCUAAGGCAAACGCUAUGGUGAAGGCAUAGUCCAGGGAGUGGCGAAAGUCACACAAACCGG

Variants of: B1
Assay: reverse-splicing fitness (ratio to wild type); higher = more active; in vitro selection; Mg2+ level not given
Summary of the method: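 An in vitro group I ribozyme library with randomized positions was T7-transcribed and gel-purified. In triplicate, 10 pmol RNA in EPPS pH 7.5 was reacted with 50 pmoles of a 30-nt RNA substrate for 1 h at 37 °C across several added MgCl2 levels (1–48 mM), then stopped with EDTA. Products were reverse transcribed from a substrate-complementary primer, PCR-amplified and sequenced (HiSeq 4000). Fitness is a variant's read proportion after selection over that before, normalised to wild type.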

| Variant | reverse-splicing fitness |
| --- | --- |
| C82U A111U A145U C150A | 0.0273 |
| C82U A111U A145U C150G | 0.028 |
| C82U A111U A145C C150U C169A U176A | 0.0108 |
| C82U A111U A145C C150U C169A U176C | 0.00663 |
| C82U A111U A145C C150U C169A U176G | 0.00651 |
| C82U A111U A120U C169G | 0.00397 |
| C82U A111U A120U C169A | 0.00267 |
| C82U A111U A120U C169U | 0.00477 |
| C82U A111U A145C C150A C169G U176G | 0.00573 |
| C82U A111U A145C C150A C169G U176A | 0.0228 |
| C82U A111U A145C C150A C169G U176C | 0.0138 |
| C82U A111U A145U C150G C169G U176A | 0.00698 |
| C82U A111U A145C C150U C169G U176G | 0.00575 |
| C82U A111U A145C C150U C169G U176C | 0.0104 |
| C82U A111U A145C C150U C169G U176A | 0.0199 |
| C82U A111U A145G C150G C169A | 0.00815 |
| C82U A111U A145G C150G C169U | 0.00863 |
| C82U A111U A145G C150G C169G | 0.00754 |
| C82U A111U A145C U176C | 0.141 |
| C82U A111U A145C U176G | 0.0247 |
| C82U A111U A145C U176A | 0.0966 |

| Variant | reverse-splicing fitness |
| --- | --- |
| C82U A111U A145G C150U C169A U176C | 0.0159 |
| C82U A111U A145G C150U C169A U176G | 0.00684 |
| C82U A111U A145G C150U C169A U176A | 0.0156 |
| C82U A111U A145G C150A C169A U176G | 0.00768 |
| C82U A111U A145G C150A C169A U176C | 0.0216 |
| C82U A111U A145G C150A C169A U176A | 0.0186 |
| C82U A111U A145G C150A C169G U176C | 0.0254 |
| C82U A111U A145G C150A C169G U176A | 0.0146 |
| C82U A111U A145G C150A C169G U176G | 0.00627 |
| C82U A111U A120U C169U U176C | 0.00325 |
| C82U A111U A120U C169U U176A | 0.00357 |
| C82U A111U A120U C169U U176G | 0.0019 |
| C82U A111U A120U C169A U176A | 0.00285 |
| C82U A111U A120U C169A U176C | 0.00317 |
| C82U A111U A120U C169A U176G | 0.00193 |
| C82U A111U A145U C150A C169G U176A | 0.011 |
| C82U A111U A145U C150A C169G U176G | 0.00594 |
| C82U A111U A145U C150A C169G U176C | 0.0121 |
| C82U A111U A145U C150A U176A | 0.0154 |
| C82U A111U A145U C150A U176C | 0.022 |
| C82U A111U A145U C150A U176G | 0.00782 |

| Variant | reverse-splicing fitness |
| --- | --- |
| C82U A111U A145C C169A U176C | 0.00614 |
| C82U A111U A145C C169A U176G | 0.00457 |
| C82U A111U A145C C169A U176A | 0.00952 |
| C82U A111U A145C C150G C169U U176G | 0.00515 |
| C82U A111U A145C C150G C169U U176A | 0.00804 |
| C82U A111U A145C C150G C169U U176C | 0.00969 |
| C82U A111U A145C C150G U176G | 0.00423 |
| C82U A111U A145C C150G U176A | 0.00994 |
| C82U A111U A145C C150G U176C | 0.0175 |
| C82U A111U A145U C150G C169G | 0.0071 |
| C82U A111U A145U C150G C169A | 0.00958 |
| C82U A111U A145C C150U C169U | 0.0089 |
| C82U A111U A145C C150U C169A | 0.00776 |
| C82U A111U A145C C150U C169G | 0.00801 |
| C82U A111U A120U U176C | 0.0117 |
| C82U A111U A120U U176A | 0.00769 |
| C82U A111U A120U U176G | 0.00321 |
| C82U A111U A145C C150U U176C | 0.038 |
| C82U A111U A145C C150U U176A | 0.0276 |
| C82U A111U A145C C150U U176G | 0.011 |
| C82U A111U A145G U176C | 0.159 |

| Variant | reverse-splicing fitness |
| --- | --- |
| C82U A111U A145G U176A | 0.107 |
| C82U A111U A145G U176G | 0.0229 |
| C82U A111U A145C C150G C169G | 0.0072 |
| C82U A111U A145C C150G C169A | 0.00853 |
| C82U A111U A145C C150G C169U | 0.00864 |
| C82U A111U A145G C150A C169U U176A | 0.016 |
| C82U A111U A145G C150A C169U U176G | 0.00658 |
| C82U A111U A145G C150A C169U U176C | 0.0133 |
| C82U A111U A145G C150U | 0.235 |
| C82U A111U A145G C150G | 0.0326 |
| C82U A111U A145G C150A | 0.0405 |
| C82U A111U A145G C150A C169U | 0.0105 |
| C82U A111U A145G C150A C169A | 0.00979 |
| C82U A111U A145G C150A C169G | 0.00847 |
| C82U A111U A145U C150A C169A | 0.0089 |
| C82U A111U A145U C150A C169G | 0.00727 |
| C82U A111U A145U C150A C169U | 0.0106 |
| C82U A111U A145G C150G C169U U176C | 0.0115 |
| C82U A111U A145G C150G C169U U176A | 0.0114 |
| C82U A111U A145G C150G C169U U176G | 0.00654 |
